The record followed here is the supplement of paper PMC9112550, “Optimization of the antimicrobial peptide Bac7 by deep mutational scanning” (BMC Biology, 2022).
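Further: peptides expressed intracellularly from a pBAD plasmid library in pooled LB shake-flask culture, induced with 0.3% L-arabinose, DNA abundance read by NGS, three biological replicates, DESeq2 with apeglm shrinkage.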

In this data set the test system is Escherichia coli TOP10. The experiment in a line: shrunken log2 fold change of peptide-encoding DNA abundance (4.5 h post-induction vs induction); higher = less antimicrobial activity (less host growth inhibition). The following applies: time post-induction: 4.5 h; library: site-saturation at positions 5, 18, 19, 20.
For RRIRRRPPRLPRPRPRPIQCPRP, the “shrunken log2 fold change” value came to 0.00305. As for RRIRLRPPRLPRPRPRPFTLPRP, the figure is -0.192.

For RRIRRRPPRLPRPRPRPQDSPRP, the “shrunken log2 fold change” value was -0.0402. In the case of RRIRIRPPRLPRPRPRPVDIPRP, the “shrunken log2 fold change” value was -0.405.

For the sequence RRIRSRPPRLPRPRPRPYELPRP, the “shrunken log2 fold change” value is 0.093.

RRIRNRPPRLPRPRPRPWYKPRP: the “shrunken log2 fold change” value is -0.00149.

Take RRIRSRPPRLPRPRPRPWLTPRP: the “shrunken log2 fold change” value was -0.0675. For RRIRVRPPRLPRPRPRPSTYPRP the value was -0.288. For RRIRPRPPRLPRPRPRPNTLPRP the value was -0.468; for RRIRDRPPRLPRPRPRPWYIPRP, -0.0219; for RRIRQRPPRLPRPRPRPRESPRP, 0.0584. As for RRIRTRPPRLPRPRPRPMAQPRP, the figure is 0.074; as for RRIRIRPPRLPRPRPRPNVAPRP, 0.00755. Regarding RRIRRRPPRLPRPRPRPHGEPRP, the “shrunken log2 fold change” value is 0.0136. For RRIRMRPPRLPRPRPRPCMLPRP the value was 0.303; for RRIRWRPPRLPRPRPRPEEKPRP, 0.584. For RRIRERPPRLPRPRPRPNWCPRP the value was -0.0117; for RRIRTRPPRLPRPRPRPMVHPRP, -0.00211.

In the case of RRIRERPPRLPRPRPRPSCPPRP, the “shrunken log2 fold change” value was -0.361.

Regarding RRIRPRPPRLPRPRPRPSRAPRP, the “shrunken log2 fold change” value was 0.11. As for RRIRHRPPRLPRPRPRPYSAPRP, the figure is 0.0254; as for RRIRCRPPRLPRPRPRPLFQPRP, -0.417; as for RRIRYRPPRLPRPRPRPSYGPRP, -0.383. For RRIRVRPPRLPRPRPRPFKWPRP the value was 0.00238; for RRIRLRPPRLPRPRPRPTISPRP, -0.375. For RRIRHRPPRLPRPRPRPACSPRP the value was -0.104; for RRIRKRPPRLPRPRPRPIDQPRP, 0.122; for RRIRYRPPRLPRPRPRPVADPRP, -0.127. Consider RRIRPRPPRLPRPRPRPPSDPRP, for which the “shrunken log2 fold change” value came to 0.128. As for RRIRNRPPRLPRPRPRPRQKPRP, the figure is -0.0544; as for RRIRMRPPRLPRPRPRPSIKPRP, -0.0928; as for RRIRVRPPRLPRPRPRPTQGPRP, 0.291. On to RRIRCRPPRLPRPRPRPWQGPRP, for which the “shrunken log2 fold change” value is -0.0944. As for RRIRQRPPRLPRPRPRPHCWPRP, the figure is -0.0628. Consider RRIRQRPPRLPRPRPRPENRPRP, for which the “shrunken log2 fold change” value worked out at 0.0211. Take RRIRDRPPRLPRPRPRPHFCPRP: the “shrunken log2 fold change” value was 0.23. As for RRIRFRPPRLPRPRPRPKSSPRP, the figure is -0.103; as for RRIRKRPPRLPRPRPRPFAKPRP, 0.0238; as for RRIRLRPPRLPRPRPRPKFGPRP, 0.146. As for RRIRTRPPRLPRPRPRPPTNPRP, the figure is 0.156. As for RRIRTRPPRLPRPRPRPKDKPRP, the figure is -0.341.

For the sequence RRIRMRPPRLPRPRPRPMVDPRP, the “shrunken log2 fold change” value turned out to be 0.0184. As for RRIRRRPPRLPRPRPRPTFAPRP, the figure is 0.765; as for RRIRTRPPRLPRPRPRPAQQPRP, 0.233; as for RRIRFRPPRLPRPRPRPWGNPRP, 0.117. In the case of RRIRHRPPRLPRPRPRPFMPPRP, the “shrunken log2 fold change” value is -0.146. Consider RRIRWRPPRLPRPRPRPYFTPRP, for which the “shrunken log2 fold change” value is -0.624. Consider RRIRKRPPRLPRPRPRPKQSPRP, for which the “shrunken log2 fold change” value was determined as 0.525. Turning to RRIRQRPPRLPRPRPRPMTLPRP, the “shrunken log2 fold change” value was 0.106. On to RRIRFRPPRLPRPRPRPGLYPRP, for which the “shrunken log2 fold change” value was -0.171.
